{"source": "ChEMBL document CHEMBL4433268", "about": "“Rational design of a SHP-2 targeted, fluorogenic peptide substrate” (Bioorg Med Chem Lett, 2019)", "proteins": {"B1": {"name": "Tyrosine-protein phosphatase non-receptor type 11 (Homo sapiens), Q06124 (protein)", "chain": "MTSRRWFHPNITGVEAENLLLTRGVDGSFLARPSKSNPGDFTLSVRRNGAVTHIKIQNTGDYYDLYGGEKFATLAELVQYYMEHHGQLKEKNGDVIELKYPLNCADPTSERWFHGHLSGKEAEKLLTEKGKHGSFLVRESQSHPGDFVLSVRTGDDKGESNDGKSKVTHVMIRCQELKYDVGGGERFDSLTDLVEHYKKNPMVETLGTVLQLKQPLNTTRINAAEIESRVRELSKLAETTDKVKQGFWEEFETLQQQECKLLYSRKEGQRQENKNKNRYKNILPFDHTRVVLHDGDPNEPVSDYINANIIMPEFETKCNNSKPKKSYIATQGCLQNTVNDFWRMVFQENSRVIVMTTKEVERGKSKCVKYWPDEYALKEYGVMRVRNVKESAAHDYTLRELKLSKVGQGNTERTVWQYHFRTWPDHGVPSDPGGVLDFLEEVHHKQESIMDAGPVVVHCSAGIGRTGTFIVIDILIDIIREKGVDCDIDVPKTIQMVRSQRSGMVQTEAQYRFIYMAVQHYIETLQRRIEEEQKSKRKGHEYTNIKYSLADQTSGDQSPLPPCTPTPPCAEMREDSARVYENVGLMQQQKSFR"}}, "conditions_in_all_cases": "Homo sapiens", "key": {"[1]": {"substrate": "CC[C@H](C)[C@H](NC(=O)[C@@H](NC(=O)[C@H](CC(=O)O)NC(=O)[C@H](CC(=O)O)NC(C)=O)[C@@H](C)O)C(=O)N[C@@H](Cc1cc(=O)oc2cc(OP(=O)(O)O)ccc12)C(=O)N[C@@H](CC(=O)O)C(=O)N[C@H](C(=O)N[C@@H](CC(C)C)C(=O)N[C@@H](CC(=O)O)C(N)=O)C(C)C", "description": "(§1) Substrate activity at SHP2 (unknown origin) expressed in Escherichia coli BL21 (DE3) assessed as Kcat incubated for 60 mins by fluorescence based assay"}, "[2]": {"substrate": "CC[C@H](C)[C@H](NC(=O)[C@@H](NC(=O)[C@@H]1CCCN1C(=O)[C@H](CC(=O)O)NC(C)=O)[C@@H](C)O)C(=O)N[C@@H](Cc1cc(=O)oc2cc(OP(=O)(O)O)ccc12)C(=O)N1CCC[C@H]1C(=O)N[C@H](C(=O)N[C@@H](CC(C)C)C(=O)N[C@@H](CC(=O)O)C(N)=O)C(C)C", "description": "as §1"}, "[3]": {"substrate": "CC[C@H](C)[C@H](NC(=O)[C@@H](NC(=O)[C@H](CC(=O)O)NC(=O)[C@H](CC(=O)O)NC(C)=O)[C@@H](C)O)C(=O)N[C@@H](Cc1cc(=O)oc2cc(OP(=O)(O)O)ccc12)C(=O)N[C@@H](CC(=O)O)C(=O)N[C@H](C(=O)N[C@@H](CC(C)C)C(=O)N[C@@H](CC(=O)O)C(N)=O)C(C)C", "remark": "listed apart in the source", "description": "(§2) Substrate activity at SHP2 (unknown origin) expressed in Escherichia coli BL21 (DE3) assessed as Kcat/Km ratio incubated for 60 mins by fluorescence based assay"}, "[4]": {"substrate": "CC[C@H](C)[C@H](NC(=O)[C@@H](NC(=O)[C@@H]1CCCN1C(=O)[C@H](CC(=O)O)NC(C)=O)[C@@H](C)O)C(=O)N[C@@H](Cc1cc(=O)oc2cc(OP(=O)(O)O)ccc12)C(=O)N1CCC[C@H]1C(=O)N[C@H](C(=O)N[C@@H](CC(C)C)C(=O)N[C@@H](CC(=O)O)C(N)=O)C(C)C", "remark": "listed apart in the source", "description": "as §2"}, "[5]": {"substrate": "CC[C@H](C)[C@H](NC(=O)[C@@H](NC(=O)[C@H](CC(=O)O)NC(=O)[C@H](CC(=O)O)NC(C)=O)[C@@H](C)O)C(=O)N[C@@H](Cc1cc(=O)oc2cc(OP(=O)(O)O)ccc12)C(=O)N[C@@H](CC(=O)O)C(=O)N[C@H](C(=O)N[C@@H](CC(C)C)C(=O)N[C@@H](CC(=O)O)C(N)=O)C(C)C", "remark": "listed apart in the source", "description": "(§3) Substrate activity at SHP2 (unknown origin) expressed in Escherichia coli BL21 (DE3) assessed as Km incubated for 60 mins by fluorescence based assay"}, "[6]": {"substrate": "CC[C@H](C)[C@H](NC(=O)[C@@H](NC(=O)[C@@H]1CCCN1C(=O)[C@H](CC(=O)O)NC(C)=O)[C@@H](C)O)C(=O)N[C@@H](Cc1cc(=O)oc2cc(OP(=O)(O)O)ccc12)C(=O)N1CCC[C@H]1C(=O)N[C@H](C(=O)N[C@@H](CC(C)C)C(=O)N[C@@H](CC(=O)O)C(N)=O)C(C)C", "remark": "listed apart in the source", "description": "as §3"}}, "data": [{"protein": "B1", "values": [{"measurement": "kcat", "setting": "[1]", "value": 0.059, "unit": "s⁻¹"}, {"measurement": "kcat", "setting": "[2]", "value": 0.0045, "unit": "s⁻¹"}, {"measurement": "kcat/Km", "setting": "[3]", "value": 270, "unit": "M⁻¹ s⁻¹"}, {"measurement": "kcat/Km", "setting": "[4]", "value": "6 to 6.4", "unit": "M⁻¹ s⁻¹"}, {"measurement": "Km", "setting": "[5]", "value": 220, "unit": "µM"}, {"measurement": "Km", "setting": "[6]", "value": 700, "unit": "µM"}]}]}
